# Reference: the DeepSol protein solubility set
# Assay: soluble on expression in E. coli; label from the status in PepcDB or PDB records
row,Sequence,soluble on expression in E. coli
1,MMHTWFECKIRYEKVMENGMNKKVTEPYLVDALSFTEAEARIIEEITPYISGEFTVSDIKRANYSELFPSEEDAADRWFKCKLFFITLDEKSGAEKKTSTTVLVQASDLRDAVKKLDEGMKGTMADYVIASVAETAIMDVYPYEAEPDVKPEFPDAGKTE,not soluble
2,MMIFEKIHTVPTSEELTNKAFKRAARAMSGKTIDGRDSRFKANESMLLTAANIFTDNLANIVRRFPSFEQLPRFYYELTDILVGVEKLKMSLASVDWASRKIHEVARSYVGKIRESDIPEPVRKEAFGRLASIINSINKDLLFLNEARNILRKLPDVQDEPTIVIAGYPNVGKSSFVSKITGATPEIAPYPFTTKGVTIGHFTRDGVRYQVMDTPGLLDRPMAERNDIERQAITAIHYLDAVVMVVIDPSESCGYELQDQRRLLAEIRENFNLPLLVVANKADRPEFMKMDEVELNMSTITGEGIEQVMDRLLEMIEEKRLRSLEEAPSEESDDESALLEHHHHHH,soluble
3,MMKILPHVTNETAPLRTVVLGLPDSTGGAPALADTYDAKSYESVLRGTYPSDEDIKIEMDAVLDVLVRHGIEVLRPEPIANYNQIFARDVAFAIDDKLFVSNLIADRARESEAFSPIWDCVGESHLVRLSEDIHAEGGDILLYDDILFIGTYLQKDYPSFKTARTNARAVDFFREFFPHKTIIPIELIKHDTDPMRSVLHLDCAFQPVGRSRAIVYRQGFLHSESFGLITEIFGGRDNLFEITPEEAYMMNTNIFSISPDTVISEQNFVRLNNHLREAWGMTVEEVPYAEISKQGGLLRCSTMPLVRE,not soluble
4,MMKRQLHRMRQLAQTGSLGRTPETAEFLGEDLLQVEQRLEPAKRAAHNIHKRLQACLQGQSGADMDKRVKKLPLMALSTTMAESFKELDPDSSMGKALEMSCAIQNQLARILAEFEMTLERDVLQPLSRLSEEELPAILKHKKSLQKLVSDWNTLKSRLSQATKNSGSSQGLGGSPGSHSHTTMANKVETLKEEEEELKRKVEQCRDEYLADLYHFVTKEDSYANYFIRLLEIQADYHRRSLSSLDTALAELRENHGQADHSPSMTATHFPRVYGVSLATHLQELGREIALPIEACVMMLLSEGMKKEGLFRLAAGASVLKRLKQTMASDPHSLEEFCSDPHAVAGALKSYLRELPEPLMTFDLYDDWMRAASLKEPGARLQALQEVCSRLPPENLSNLRYLMKFLARLAEEQEVNKMTPSNIAIVLGPNLLWPPEKEGDQAQLDAASVSSIQVVGVVEALIQSADTLFPGDINFNVSGLFSAVTLQDTVSDRLASEELPSTAVPTPATTPAPAPAPAPAPAPALASAATKERTESEVPPRPASPKVTRSPPETAAPVEDMARRSPRGATGR,soluble
5,MMLCFQEVALNGGNILSKFTERLLTILYPPICPGCKQRVSAYGTICSECWKDLQFITKPYCPVMGVPFVYDMGDGFLSGEALQNSLPFSRVRSVIVHKGVAQSLVTRLKYGDHVELASFMANWMVSAGREIVDDCDIIISVPLHFRRFLKRRYNQSAELARYIARVQKKEFKPGWLVRCRHTRPQVNLSARERKLNVLNAFEVPRKVKKYLKGRSILLIDDVFTTGATVTAAAATLKRAGARQVDVLTFSRVLKEASIFPNS,not soluble
6,MMLEQLIQLKQDLIDGSKVEKPSLDDKQIDEMDILVSEALEFNKELKFKLFNKGFVENVTGRVHYINFEQQKLHVKDQNDNTVYINMNNIIRVIYND,not soluble
7,MMLFSNLIKENQKIWNAYLHHDFVKKLEDKSLKQENFLFYLKQDYIYLLNYAKCYARLALNSNTAKELRFAMKFQNYIVEGEMELHRAILSLGINADELDIKDESLVNIAYSRYMLSVGENGDFLDMLVALSACAIGYAKIGAEIINRLKNENLKDHPYKEWILTYGSENFQNEAKEFEDFVNSYTSSVGAQKFQKLSEIFHTVTRLEVAFWEHSLRMELNLLEHHHHHH,soluble
8,MMLSKVLRNSPLLFRVAQPKDHERIIKFLDKHFAKEEPCSRALKISPEISRGVFTATVTRCLTTPFSTVVLQENGDLAACLLASVWNRTDPLENADFDDTGLPENFKLFIQFLNKAHLNFWKIAPPNVNSIIHREIGSVAPQFTRLGIATKMVTTNMTKRNLKKYNIGGVLSETTSLANQIVLEKAGFKCLKELPYSTIVDSKGNQVLKLDDGTTSLCLNFKPIEEYENLPE,not soluble
9,MMLYFITFREARVLLKSRDLALINVDLMKTGKKIRVRVSKDYVEFPDGSRVKKEIIKRIAEDEGNVYFVRDGEVFKAAIAGEHFYKLVPTIPPTIEINGIRMHRTKGTDPLKDTIAKVNTVKPREGEVVLDTCMGLGYTAIESAKRGARVITIEKDPNVIELAKINPWSRELFESPKIKILQGDSFDLIKKFEDESFDVIIHDPPRFSLAGELYSEEFYMEMFRVLKPGGRLFHYVGNPGKRYRGLDLQKGVMERLRRVGFMKVRRVQEALGVFALKPSLE,soluble
10,MMMSSEMIHVEVVYALPHEQRVLKLVVEQSATVEEIIRTSGILQMYPEIDLTVNKVGIFSRNVKLDARVRDKDRIEIYRPLLADPKEIRRKRAEQAKAAANQS,not soluble
11,MMNEPQVSFITVCYNGFKDTCELIESLQTHVHSVSYEIIVVDNASREDEATKIKELYSDIVTLRSESNLGFSGGNNLGIRVAKGAYIFLINNDTYVESDGFHYLTERLESQKNIGAVSPKIRFAFPPQNIQFAGFTSLSAITIRNEMTGFGCPDDGTFDTPHTTPYLHGAALMVKREVIEKVGEMPEIFFLYYEEMDWCTQMTNAGYELWYEPRCTVFHKESQSTGQFSKLRTFYMTRNRLLYTRRNRKGAQRLLSILYQSTIAAGKNSLQFAVKGRFDLFAAVWKGVVRSFSVTSPIRLEHHHHHH,not soluble
12,MMNMITVIGFGSFGRKVVNFIKNKEPITIIDKNIDDADDLVKEGVTVIVGDATQDEVLKKAKIENADIVLILTNEPEVNRRIAERVCELSPNSYKIARAIPRYPELYMGLNIDKIINILESGAKDIAKEVEDAKLKRKLMQLKSVLIEGKKRCMKLEKTEEEKKAPLLILTHINPDPDAIASAMALKTLAERWGVDSDIAYGGNIGYDENKAMINLLGIKLLNVEDIDLDNYCVIAVIDTSTSKQLPIELPNIDIIIDHHNNTDLTAKYMDVRPEVGATASILTQYLMELDIEPSRNLATALFYGIQSDTDYFKRETSKLDFEAAAYLQSYIDASILNMIENPEISTEVMEVLAKAVMNRRVVKGNIALAYVGEISNRDALPKAADFLLKMEGISTTFVFGIVGDEIHISARTKDLRLNLGEILNKAFGGGGHQTAAAAKIPLGIFKAVSDKEALRKLVEEAIRAKILEVIGIKEEEK,not soluble
13,MMNQSRIKPVRMLILLRKLSPISRRIRIRNRLKQKTRSATIKSRCNPCLISVLANCYWCSSSASPPSGAATTACGGKNGSGLDSRVAFTGDNGAERTDPGVKTPGVSGQSEKG,not soluble
14,MMNYDRILIRYGEMTTKGKNRNIFVRRLKNNIARKLQAFERIQIEYMRDRMYILLNGEPHEPIIEKLKTVFGIHSFSLAMKCENDLDAIKETALAAVRQLPYKGKTFKVSARRVDKQFPDRSDELNYEVGAHILRHTDGLTVNVREPDIDVRIEVRQDGTYVTCRDIFGAGGLPVGTSGKAMLMLSGGIDSPVAGYLSMKRGLEIEAVHFFSPPFTSERAKQKVIDLVRKLTTYGGRIKLHIVPFTEVQQAIYQGVPNEYSLISTRRAMLRITDALRRRQRALAIVTGESLGQVASQTLESMYVINEVTNTPILRPLVSMDKLEIIELAKQIGTHDISILPYEDCCTIFTPRAPKTKPKKEKVFHYESQLDLAPLLEKAVNDTETLVIDEETGQGDEFAELF,not soluble
15,MMPLNRQSTTPLYIQLYQQMRDDYDATQANHQLWSIRKMAQNLGVSKTTVEQAYDQLLAEGYVYTVPGSGYFYRDRTHWPAAKQALETVPQPTKPRAFTYDFRYGVTQLLSPSWNAWKRAVRLALRQTEQQPTAVYPDAQGLPALRENLVRFLKTTRGVRCTADQIVITSGAKAGLSILLSILPRGTVGIENPGYRGLSELAASYGQTAVPIRVTEDGLDLTQVRARNPQIIYTTPGHQFPLGVVLPIEKRLALLQWAGTQHLIIEDDYDSEYRYSAHPLPALQSLATANQVAYLGTFSRGIDPTLRMGYLVLPPQLVATYHQRYQYRAEMVAGLLQQAMANYFEDGAYYRHLSRNRAANRQKYRVLCHQLAQTKQIRPIATGAGVHLVVQIPGIAQAKLLEALEQQQVRIYPLSSNWRDMPTTDYYLLGFAGLTLSELTTGVKRLVQVCEQLVR,not soluble
16,MMPTEYPATAEESVDVITDALLTASRLLVAISAHSIAQVDENITIPQFRTLVILSNHGPINLATLATLLGVQPSATGRMVDRLVGAELIDRLPHPTSRRELLAALTKRGRDVVRQVTEHRRTEIARIVEQMAPAERHGLVRALTAFTEAGGEPDARYEIE,soluble
17,MMRMKVKVVVNGKEYEVEVEEVMPGKFRVTLEGETYEVETSAGFVTSPKQVQVPTPAPTPAPAPTPTPAPAPSSKTVVSENVVSAPMPGKVLRVLVRVGDRVRVGQGLLVLEAMKMENEIPSPRDGVVKRILVKEGEAVDTGQPLIELG,soluble
18,MMRRTLENRNAQTKQLQTAVSNVEKHFGELCQIFAAYVRKTARLRDKADLLVNEINAYAATETPHLKLGLMNFADEFAKLQDYRQAEVERLEAKVVEPLKTYGTIVKMKRDDLKATLTARNREAKQLTQLERTRQRNPSDRHVISQAETELQRAAMDASRTSRHLEETINNFERQKMKDIKTIFSEFITIEMLFHGKALEVYTAAYQNIQNIDEDEDLEVFRNSLYAPDYSSRLDIVRANSKSPLQRSLSAKCVSGTGQEAGWAATCQTLI,soluble
19,MMSDRDYTLIIDKSGSMSTPDQAGGRSRWEIAQESTLALARKCEQFDPDGITVYLFSGKFKRYDDVTSAKVAQIFLENDPAGTTNLAGVLQDALNNYFQRKAAGKTKPNGETILVITDGEPDDRKAVFETIIHATRQMERDEELGISMIQVGSDAQATKFLKALDDQLQSVGAKFDICDTITLEDLEDMSLADVLMNAITDLEHHHHHH,soluble
20,MMSETGFIDVKIFPQRLLKPETAEKLLNRIYELEGIVRVLVHGPSIPDRVYYGPARGTEVNHSDRRKITVRGEEFELRVKVGEIIVGMLPETLEEKMETIEEILDEVLPCSYKVFIGAFTKKDITISDYLKYGLKFEEKIDPRVIGMVDPSSRMKDTVVNIKLEHHHHHH,soluble
21,MMSPRIGLTLQKIVETAAEIADANGVQEVTLASLAQTLGVRSPSLYNHVKGLQDVRKNLGIYGIKKLHNRLEEAAEDKRMDEAIHALGEAYVAFVRKHPGLYEATFLRDEEVRKAGDGIVKLCLQVLQQYGLEGENALHATRGFRSICHGFASIEQQGGFGLPLDLDISLHVLLETFIKGLRE,soluble
22,MMSVEHSANSQKKVIVGMSGGVDSSVSAYLLKQQGYQVEGLFMKNWEEDDNEEYCTAAEDLADAQAVCDKLGIPLHTINFAAEYWDNVFEYFLAEYKAGRTPNPDILCNKEIKFKAFLEFADEVLDADYIAMGHYVRRTFPQNGEKPQMLRGLDGNKDQSYFLYTLSHEQVARTLFPVGELEKPEVRRIAEEQGLITAKKKDSTGICFIGERKFTDFLSRYLPAQPGKIETPEGKVIGEHQGLMYHTLGQRKGLHIGGMKESSEQPWYVADKDLKRNVLIAVQGADHPLLKSHGLVAAQLHWVDRTPITEPVRCSVKTRYRQSDIACTIIPLSDDRIKVMFDEPQVAVTPGQSAVFYQGEICLGGGIIEERI,not soluble
